From US11123413B2, “Carbapenemases for use with antibiotics for the protection of the intestinal microbiome” (priority 2015, dated 2021)
Several values for one entry are separate records, joined by “and”; a condition that tells them apart may be missing. Identical values can stand only once.

Assays:
[1] = Oral P2A and intravenous cefotaxime in jejunal-fistulated dogs; assay type: in vivo, laboratory beagles; settings: peroral P2A 1 mg/kg, intravenous cefotaxime 60 mg/kg, omeprazole
Experimental: The ability of P2A to degrade cefotaxime in the dog intestinal tract was evaluated using laboratory beagles that had permanent jejunal fistulas. The fistulas allowed the repeated collection of jejunal chyme specimens from these animals. Dogs were treated with peroral P2A (1 mg/kg) in a liquid formulation (PBS buffer), and/or intravenous cefotaxime (60 mg/kg). A single dose of omeprazole (10 mg) was delivered orally to each dog prior to treatment with ceftriaxone and/or P2A to inhibit the HCl activity in the stomach to potentially reduce P2A degradation. Serum samples were collected and serum cefotaxime levels quantified. Jejunal chyme samples were collected and cefotaxime and P2A levels were quantified. Cefotaxime levels in serum and chyme were measured using a plate diffusion method using cefotaxime susceptible Micrococcus luteus TS504 as the test strain. P2A activity levels in chyme were determined spectrophotometrically using meropenem as a substrate. Meropenem hydrolysis was monitored at a wavelength of 297 nm.

[2] = Oral P2A and intravenous ampicillin in jejunal-fistulated dogs; assay type: in vivo, laboratory beagles; settings: peroral P2A 1 mg/kg liquid formulation, intravenous ampicillin 40 mg/kg
Experimental: (§1) The ability of P2A to degrade ampicillin in the dog intestinal tract was evaluated using laboratory beagles that had permanent jejunal fistulas. The fistulas allowed the repeated collection of jejunal chyme specimens from these animals. Dogs were treated with peroral P2A (1 mg/kg) in a liquid formulation (PBS buffer), and/or intravenous ampicillin (40 mg/kg). Serum samples were collected and serum ampicillin levels quantified. Jejunal chyme samples were collected and ampicillin and P2A levels were quantified. Ampicillin levels in serum and chyme were measured using a standard reverse phase HPLC method. P2A activity levels in chyme were determined spectrophotometrically using meropenem as a substrate. Meropenem hydrolysis was monitored at a wavelength of 297 nm.

E. coli (ATCC 25922) = assay: Antibiotic inactivation screening assay via E. coli growth (96 well plate, OD625); assay type: cell-based; settings: 10 ng/ml or 100 ng/ml enzyme (FIG. 35)
[3] = Oral P2A and intravenous meropenem in jejunal-fistulated dogs; assay type: in vivo, laboratory beagles
Experimental: as §1, with “meropenem” for “ampicillin”, “meropenem (30” for “ampicillin (40”, “Meropenem” for “Ampicillin”, “plate diffusion method using meropenem susceptible Micrococcus luteus TS504 as the test strain.” for “standard reverse phase HPLC method.”

[4] = NDM in dilutions of mixed human chyme with and without protease inhibitors (SDS-PAGE, CENTA); assay type: in vitro ADME; settings: 30 minutes
Experimental: NDM activity was lost immediately upon incubation in the mixed human chyme (FIG. 24). To determine if the loss in activity was due to digestion by proteases present in the human chyme, purified NDM (100 ug/ml) was incubated for 30 minutes with dilutions of human mixed chyme ranging from 100% to 0% chyme in the absence or presence of a serine protease inhibitor cocktail (SigmaFAST protease inhibitors cocktail without EDTA (Sigma-Aldrich catalog number S8830). All incubations were performed in the presence of 100 μM ZnSO4 (final concentration). Samples removed at 30 minutes were transferred to lamelli sample buffer containing beta mercaptoethanol for analysis of protein degradation by gel electrophoreses and staining with coomassie blue. The remaining samples were snap frozen and used for evaluation of beta lactamase activity using a CENTA substrate (FIG. 25). […] In addition, most of the activity of NDM was retained at chyme dilutions of 3.13% or less (FIG. 25, panel A). In the presence of protease inhibitors, the majority of the NDM activity was retained at chyme dilutions of 50% or less.

[5] = KPC and NDM stability in mixed human chyme versus buffer (CENTA); assay type: in vitro ADME; settings: 100 μM ZnSO4, 37° C., 80 ng/mL
Experimental: The stability of KPC and NDM in human chyme at 37° C. was evaluated by adding purified KPC or NDM (final concentration of 80 ng/mL) to mixed human chyme that contained equal volumes of each of five human chyme specimens collected from five different donors. ZnSO4 was added to the mixed chyme for a final concentration of 100 μM ZnSO4. Aliquots of the enzyme/chyme mixture were collected at 0, 30, 60, 120, 180, and 240 minutes of incubation and evaluated for beta-lactamase activity with a chromogenic assay using the CENTA reagent as the substrate. The biological activity of the enzymes in the mixed chyme was compared to the activity in buffer (HEPES buffer, 100 μM ZnSO4 pH 6.2).

[6] = peak level in dog jejunum, meropenem 30 mg/kg IV + P2A 1 mg/kg PO, individual dogs
[7] = peroral P2A 1 mg/kg, intravenous meropenem 30 mg/kg

Molecule | cefotaxime in jejunal chyme [1] | effect on serum levels of cefotaxime [1] | ampicillin in jejunal chyme [2] | effect on serum levels of ampicillin [2] | activity against cephalosporins compared to SYN-004 or P4A (E. coli (ATCC 25922)) | jejunal P2A concentration at which meropenem was not detected ([3]; intestinal samples, dogs) | Meropenem [3, 6] | P2A (U/g) [3, 6] | effect on serum levels of meropenem [3, 7] | meropenem in jejunal chyme [3, 7] | chyme dilution at which the majority of the activity was retained ([4]; in the presence of protease inhibitors) [%] | chyme dilution at which most of the activity was retained ([4]; without protease inhibitors) [%] | chyme dilution at which intact protein could be detected ([4]; without protease inhibitors, SDS-PAGE) [%] | time by which activity was lost / not detectable [5] [min]
P2A: broad spectrum carbapenemase, class B metallo-enzyme requiring zinc, SEQ ID NO: 37; P2A-21 = product of strain SYT-PP0602-21 (protein) ETGTISISQLNKNVWVHTELGYFNGEAVPSNGLVLNTSKGLVLVDSSWDNKLTKELIEMVEKKFQKRVTDVIITHAHADRIGGITALKERGIKAHSTALTAELAKNSGYEEPLGDLQTITSLKFGNTKVETFYPGKGHTEDNIVVWLPQYQILAGGCLVKSAEAKDLGNVADAYVNEWSTSIENVLKRYGNINSVVPGHGEVGDKGLLLHTLDLLK | degraded cefotaxime | does not reduce serum levels of cefotaxime | degraded ampicillin | does not reduce serum levels of ampicillin | not as active against the cephalosporins, cefozolin, cefoperazone, cefepime, and ceftazidime | at least 0.5 U/g | 0 ug/ml (2×) and 2.0 ug/ml | 0.5 U/g and 0.2 U/g and 80 U/g | does not reduce serum levels of meropenem | degraded meropenem | – | – | – | –
NDM: New Delhi metallo-β-lactamase NDM-1; NDM-68 = product of strain STY-NP1602-68 (STII Δ35, N-terminal GQQMETG) (protein) GQQMETGDQRFGDLVFRQLAPNVWQHTSYLDMPGFGAVASNGLIVRDGGRVLVVDTAWTDDQTAQILNWIKQEINLPVALAVVTHAHQDKMGGMDALHAAGIATYANALSNQLAPQEGMVAAQHSLTFAANGWVEPATAPNFGPLKVFYPGPGHTSDNITVGIDGTDIAFGGCLIKDSKAKSLGNLGDADTEHYAASARAFGAAFPKASMIVMSHSAPDSRAAITHTARMADKLR | – | – | – | – | – | – | – | – | – | – | ≤ 50 | ≤ 3.13 | ≤ 6.25 | ≤ 30
